Columns and labels:
[1] = system: GFP-14-3-3β and its binding proteins; assay: GFP-14-3-3β co-IP with LC-MS/MS label-free quantification, untreated versus PP1c-treated; parameters: species or system human
[2] = system: GFP-14-3-3β; assay: GFP-14-3-3β co-IP with LC-MS/MS, untreated GFP-14-3-3β versus GFP control (14-3-3 interactome); type: binding, human
[3] = GFP-14-3-3β co-IP LC-MS/MS, PP1 vs untreated, student's t-test, label-free quantification, 3 replicates each
[4] = GFP-14-3-3β co-IP LC-MS/MS, untreated vs GFP, student's t-test, label-free quantification, 3 replicates each

Molecule | Difference (log2), PP1 vs untreated [1, 3] [log2] | Difference (log2), untreated vs GFP [2, 4] [log2] | other results
AP2A1 (protein, UniProt O95782 1-977, looked up) AP-2 complex subunit alpha-1: MPAVSKGDGMRGLAVFISDIRNCKSKEAEIKRINKELANIRSKFKGDKALDGYSKKKYVCKLLFIFLLGHDIDFGHMEAVNLLSSNKYTEKQIGYLFISVLVNSNSELIRLINNAIKNDLASRNPTFMCLALHCIANVGSREMGEAFAADIPRILVAGDSMDSVKQSAALCLLRLYKASPDLVPMGEWTARVVHLLNDQHMGVVTAAVSLITCLCKKNPDDFKTCVSLAVSRLSRIVSSASTDLQDYTYYFVPAPWLSVKLLRLLQCYPPPEDAAVKGRLVECLETVLNKAQEPPKSKKVQHSNAKNAILFETISLIIHYDSEPNLLVRACNQLGQFLQHRETNLRYLALESMCTLASSEFSHEAVKTHIDTVINALKTERDVSVRQRAADLLYAMCDRSNAKQIVSEMLRYLETADYAIREEIVLKVAILAEKYAVDYSWYVDTILNLIRIAGDYVSEEVWYRVLQIVTNRDDVQGYAAKTVFEALQAPACHENMVKVGGYILGEFGNLIAGDPRSSPPVQFSLLHSKFHLCSVATRALLLSTYIKFINLFPETKATIQGVLRAGSQLRNADVELQQRAVEYLTLSSVASTDVLATVLEEMPPFPERESSILAKLKRKKGPGAGSALDDGRRDPSSNDINGGMEPTPSTVSTPSPSADLLGLRAAPPPAAPPASAGAGNLLVDVFDGPAAQPSLGPTPEEAFLSELEPPAPESPMALLADPAPAADPGPEDIGPPIPEADELLNKFVCKNNGVLFENQLLQIGVKSEFRQNLGRMYLFYGNKTSVQFQNFSPTVVHPGDLQTQLAVQTKRVAAQVDGGAQVQQVLNIECLRDFLTPPLLSVRFRYGGAPQALTLKLPVTINKFFQPTEMAAQDFFQRWKQLSLPQQEAQKIFKANHPMDAEVTKAKLLGFGSALLDNVDPNPENFVGAGIIQTKALQVGCLLRLEPNAQAQMYRLTLRTSKEPVSRHLCELLAQQF |  |  | Difference (log2), PP1 vs untreated ([1]; pairwise comparison PP1 vs untreated): -0.1358 log2; Difference (log2), untreated vs GFP ([2]; pairwise comparison untreated vs GFP): 1.114 log2
SF3B2 (protein, UniProt Q13435 1-895, looked up) Splicing factor 3B subunit 2: MATEHPEPPKAELQLPPPPPPGHYGAWAAQELQAKLAEIGAPIQGNREELVERLQSYTRQTGIVLNRPVLRGEDGDKAAPPPMSAQLPGIPMPPPPLGLPPLQPPPPPPPPPPGLGLGFPMAHPPNLGPPPPLRVGEPVALSEEERLKLAQQQAALLMQQEERAKQQGDHSLKEHELLEQQKRAAVLLEQERQQEIAKMGTPVPRPPQDMGQIGVRTPLGPRVAAPVGPVGPTPTVLPMGAPVPRPRGPPPPPGDENREMDDPSVGPKIPQALEKILQLKESRQEEMNSQQEEEEMETDARSSLGQSASETEEDTVSVSKKEKNRKRRNRKKKKKPQRVRGVSSESSGDREKDSTRSRGSDSPAADVEIEYVTEEPEIYEPNFIFFKRIFEAFKLTDDVKKEKEKEPEKLDKLENSAAPKKKGFEEEHKDSDDDSSDDEQEKKPEAPKLSKKKLRRMNRFTVAELKQLVARPDVVEMHDVTAQDPKLLVHLKATRNSVPVPRHWCFKRKYLQGKRGIEKPPFELPDFIKRTGIQEMREALQEKEEQKTMKSKMREKVRPKMGKIDIDYQKLHDAFFKWQTKPKLTIHGDLYYEGKEFETRLKEKKPGDLSDELRISLGMPVGPNAHKVPPPWLIAMQRYGPPPSYPNLKIPGLNSPIPESCSFGYHAGGWGKPPVDETGKPLYGDVFGTNAAEFQTKTEEEEIDRTPWGELEPSDEESSEEEEEEESDEDKPDETGFITPADSGLITPGGFSSVPAGMETPELIELRKKKIEEAMDGSETPQLFTVLPEKRTATVGGAMMGSTHIYDMSTVMSRKGPAPELQGVEVALAPEELELDPMAMTQKYEEHVREQQAQVEKEDFSDMVAEHAAKQKQKKRKAQPQDSRGGSKKYKEFKF | -0.1579 | 2.239 | 
LSM12 (protein, UniProt Q3MHD2 2-195, looked up) Protein LSM12: AAPPGEYFSVGSQVSCRTCQEQRLQGEVVAFDYQSKMLALKCPSSSGKPNHADILLINLQYVSEVEIINDRTETPPPLASLNVSKLASKARTEKEEKLSQAYAISAGVSLEGQQLFQTIHKTIKDCKWQEKNIVVMEEVVITPPYQVENCKGKEGSALSHVRKIVEKHFRDVESQKILQRSQAQQPQKEAALSS |  |  | Difference (log2), PP1 vs untreated ([1]; log2 difference, pairwise comparison PP1 vs untreated, label-free quantification, 3 replicates each): 1.729; Difference (log2), untreated vs GFP ([2]; log2 difference, pairwise comparison untreated vs GFP, label-free quantification, 3 replicates each): 1.227
LIMA1 (protein, UniProt Q9UHB6 1-759, looked up) LIM domain and actin-binding …: MESSPFNRRQWTSLSLRVTAKELSLVNKNKSSAIVEIFSKYQKAAEETNMEKKRSNTENLSQHFRKGTLTVLKKKWENPGLGAESHTDSLRNSSTEIRHRADHPPAEVTSHAASGAKADQEEQIHPRSRLRSPPEALVQGRYPHIKDGEDLKDHSTESKKMENCLGESRHEVEKSEISENTDASGKIEKYNVPLNRLKMMFEKGEPTQTKILRAQSRSASGRKISENSYSLDDLEIGPGQLSSSTFDSEKNESRRNLELPRLSETSIKDRMAKYQAAVSKQSSSTNYTNELKASGGEIKIHKMEQKENVPPGPEVCITHQEGEKISANENSLAVRSTPAEDDSRDSQVKSEVQQPVHPKPLSPDSRASSLSESSPPKAMKKFQAPARETCVECQKTVYPMERLLANQQVFHISCFRCSYCNNKLSLGTYASLHGRIYCKPHFNQLFKSKGNYDEGFGHRPHKDLWASKNENEEILERPAQLANARETPHSPGVEDAPIAKVGVLAASMEAKASSQQEKEDKPAETKKLRIAWPPPTELGSSGSALEEGIKMSKPKWPPEDEISKPEVPEDVDLDLKKLRRSSSLKERSRPFTVAASFQSTSVKSPKTVSPPIRKGWSMSEQSEESVGGRVAERKQVENAKASKKNGNVGKTTWQNKESKGETGKRSKEGHSLEMENENLVENGADSDEDDNSFLKQQSPQEPKSLNWSSFVDNTFAEEFTTQNQKSQDVELWEGEVVKELSVEEQIKRNRYYDEDEDEE | -0.1559 | -0.3717 | 

Second part, led by results:

Difference (log2), PP1 vs untreated [1, 3] [log2] | Molecule | Difference (log2), untreated vs GFP [2, 4] [log2] | other results
-0.1595 | DSG2 (protein, UniProt Q14126 50-1118, looked up) Desmoglein-2: AWITAPVALREGEDLSKKNPIAKIHSDLAEERGLKITYKYTGKGITEPPFGIFVFNKDTGELNVTSILDREETPFFLLTGYALDARGNNVEKPLELRIKVLDINDNEPVFTQDVFVGSVEELSAAHTLVMKINATDADEPNTLNSKISYRIVSLEPAYPPVFYLNKDTGEIYTTSVTLDREEHSSYTLTVEARDGNGEVTDKPVKQAQVQIRILDVNDNIPVVENKVLEGMVEENQVNVEVTRIKVFDADEIGSDNWLANFTFASGNEGGYFHIETDAQTNEGIVTLIKEVDYEEMKNLDFSVIVANKAAFHKSIRSKYKPTPIPIKVKVKNVKEGIHFKSSVISIYVSESMDRSSKGQIIGNFQAFDEDTGLPAHARYVKLEDRDNWISVDSVTSEIKLAKLPDFESRYVQNGTYTVKIVAISEDYPRKTITGTVLINVEDINDNCPTLIEPVQTICHDAEYVNVTAEDLDGHPNSGPFSFSVIDKPPGMAEKWKIARQESTSVLLQQSEKKLGRSEIQFLISDNQGFSCPEKQVLTLTVCECLHGSGCREAQHDSYVGLGPAAIALMILAFLLLLLVPLLLLMCHCGKGAKGFTPIPGTIEMLHPWNNEGAPPEDKVVPSFLPVDQGGSLVGRNGVGGMAKEATMKGSSSASIVKGQHEMSEMDGRWEEHRSLLSGRATQFTGATGAIMTTETTKTARATGASRDMAGAQAAAVALNEEFLRNYFTDKAASYTEEDENHTAKDCLLVYSQEETESLNASIGCCSFIEGELDDRFLDDLGLKFKTLAEVCLGQKIDINKEIEQRQKPATETSMNTASHSLCEQTMVNSENTYSSGSSFPVPKSLQEANAEKVTQEIVTERSVSSRQAQKVATPLPDPMASRNVIATETSYVTGSTMPPTTVILGPSQPQSLIVTERVYAPASTLVDQPYANEGTVVVTERVIQPHGGGSNPLEGTQHLQDVPYVMVRERESFLAPSSGVQPTLAMPNIAVGQNVTVTERVLAPASTLQSSYQIPTENSMTARNTTVSGAGVPGPLPDFGLEESGHSNSTITTSSTRVTKHSTVQHSYS | -0.9434 | 
-0.1648 | SMC3 (protein, UniProt Q9UQE7 1-1217, looked up) Structural maintenance of …: MYIKQVIIQGFRSYRDQTIVDPFSSKHNVIVGRNGSGKSNFFYAIQFVLSDEFSHLRPEQRLALLHEGTGPRVISAFVEIIFDNSDNRLPIDKEEVSLRRVIGAKKDQYFLDKKMVTKNDVMNLLESAGFSRSNPYYIVKQGKINQMATAPDSQRLKLLREVAGTRVYDERKEESISLMKETEGKREKINELLKYIEERLHTLEEEKEELAQYQKWDKMRRALEYTIYNQELNETRAKLDELSAKRETSGEKSRQLRDAQQDARDKMEDIERQVRELKTKISAMKEEKEQLSAERQEQIKQRTKLELKAKDLQDELAGNSEQRKRLLKERQKLLEKIEEKQKELAETEPKFNSVKEKEERGIARLAQATQERTDLYAKQGRGSQFTSKEERDKWIKKELKSLDQAINDKKRQIAAIHKDLEDTEANKEKNLEQYNKLDQDLNEVKARVEELDRKYYEVKNKKDELQSERNYLWREENAEQQALAAKREDLEKKQQLLRAATGKAILNGIDSINKVLDHFRRKGINQHVQNGYHGIVMNNFECEPAFYTCVEVTAGNRLFYHIVDSDEVSTKILMEFNKMNLPGEVTFLPLNKLDVRDTAYPETNDAIPMISKLRYNPRFDKAFKHVFGKTLICRSMEVSTQLARAFTMDCITLEGDQVSHRGALTGGYYDTRKSRLELQKDVRKAEEELGELEAKLNENLRRNIERINNEIDQLMNQMQQIETQQRKFKASRDSILSEMKMLKEKRQQSEKTFMPKQRSLQSLEASLHAMESTRESLKAELGTDLLSQLSLEDQKRVDALNDEIRQLQQENRQLLNERIKLEGIITRVETYLNENLRKRLDQVEQELNELRETEGGTVLTATTSELEAINKRVKDTMARSEDLDNSIDKTEAGIKELQKSMERWKNMEKEHMDAINHDTKELEKMTNRQGMLLKKKEECMKKIRELGSLPQEAFEKYQTLSLKQLFRKLEQCNTELKKYSHVNKKALDQFVNFSEQKEKLIKRQEELDRGYKSIMELMNVLELRKYEAIQLTFKQVSKNFSEVFQKLVPGGKATLVMKKGDVEGSQSQDEGEGSGESERGSGSQSSVPSVDQFTGVGIRVSFTGKQGEMREMQQLSGGQKSLVALALIFAIQKCDPAPFYLFDEIDQALDAQHRKAVSDMIMELAVHAQFITTTFRPELLESADKFYGVKFRNKVSHIDVITAEMAKDFVEDDTTHG | 0.1297 | 

Reference: paper PMC7367873, “Dissecting the sequence determinants for dephosphorylation by the catalytic subunits of phosphatases PP1 and PP2A” (Nature Communications, 2020)
